Positions count from the first letter of the chain named.
B1: ADI-19469 (antibody, V domains shown)
VH: QVQLQESGPGLVKPSETLSLTCAVSGYSISSGYYWGWIRQPPGKGLEWIGSIYHSGSTYYNPSLKSRVTISVDTSKNQFSLKLSSVTAADTAVYYCARWTVMYYFDYWGQGTLVTVSS
VL: EIVMTQSPATLSLSPGERATLSCRASQSVSSYLAWYQQKPGQAPRLLIYDASNRATGIPARFSGSGSGTDFTLTISSLEPEDFAVYYCQQRSNWPTFGGGTKLEIK
notes: full-length IgG
B2: ADI-19491 (antibody, V domains shown)
VH: QVQLVQSGPTLVKPTQTLTLTCTFSGFSLSTSGVGVGWIRQPPGKALEWLALIYWDDDKRYSPSLKSRLTITKDTSKNQVVLTMTNMDPVDTATYYCAHRRATTVTTGYFDYWGQGTLVTVSS
VL: QSVLTQPPSVSGAPGQRVTISCTGSSSNIGAGYDVHWYQQLPGTAPKLLIYGNSNRPSGVPDRFSGSKSGTSASLAITGLQAEDEADYYCQSYDSSLSGHYVFGTGTKVTVL
notes: full-length IgG
B3: ADI-24816 (antibody, V domains shown)
VH: QVQLVQSGAEVKKPGASVKVSCKASGYTFTSYDINWVRQATGQGLEWMGWMNPNSGNTGYAQKFQGRVTMTRNTSISTAYMELSSLRSEDTAVYYCARGIPGYYYYGMDVWGQGTTVTVSS
VL: not shown
notes: full-length IgG
B4: ADI-24801 (antibody, V domains shown)
VH: QVQLVQSGAEVKKPGASVKVSCKASGYTFTSYGISWVRQAPGQGLEWMGWISAYNGNTNYAQKLQGRVTMTTDTSTSTAYMELRSLRSDDTAVYYCARVTARTFGGIRKGYYYGMDVWGQGTTVTVSS
VL: not shown
notes: full-length IgG; also called Ab 368
B5: ADI-19468 (antibody, V domains shown)
VH: EVQLVESGPGLVKPSETLSLTCTVSGGSISSSSYYWGWIRQPPGKGLEWIGSIYYSGSTYYNPSLKSRVTISVDTSKNQFSLKLSSVTAADTAVYYCARRDGYNYGWFDPWGQGTLVTVSS
VL: NFMLTQPHSVSESPGKTVTISCTGSSGSIASNYVQWYQQRPGSAPTTVIYEDNQRPSGVPDRFSGSIDSSSNSASLTISGLKTEDEADYYCQSYDSSNVVFGGGTKVTVL
notes: full-length IgG
B6: ADI-19474 (antibody, V domains shown)
VH: QVQLVQSGAEVKKPGESLKISCKGSGYSFTSYWIGWVRQMPGKGLEWMGIIYPGDSDTRYSPSFQGQVTISADKSISTAYLQWSSLKASDTAMYYCARPYSGSYYAFDIWGQGTTVTVSS
VL: B5 VL with G24R, A44S, V99Q, V107L
notes: full-length IgG
B7: ADI-19471 (antibody, V domains shown)
VH: EVQLVESGGGLVQPGGSLRLSCSASGFTFSSYAMHWVRQAPGKGLEYVSAISSNGGSTYYADSVKGRFTISRDNSKNTLYLQMSSLRAEDTAVYYCVKADQGSSGWFPDYWGQGTLVTVSS
VL: B5 VL with G24R, A44S, V99W, V107L
notes: full-length IgG
B8: ADI-19463 (antibody, V domains shown)
VH: QVQLQESGPGLVKPSQTLSLTCTVSGGSISSGDYYWSWIRQPPGKGLEWIGYIYYSGSTYYNPSLKSRVTISVDTSKNQFSLKLSSVTAADTAVYYCARDRLGIFDYWGQGTLVTVSS
VL: not shown
notes: full-length IgG
B9: ADI-24837 (antibody, V domains shown)
VH: QVQLQESGPGLVKPSETLSLTCTVSGGSISSYYWSWIRQPPGKGLEWIGYIYYSGSTNYNPSLKSRVTISVDTSKNQFSLKLSSVTAADTAVYYCARAIYYYDSSGYYYVGDAFDIWGQGTTVTVSS
VL: QSVLTQPPSVSAAPGQKVTISCSGSSSNIGNNYVSWYQQLPGTAPKLLIYENNKRPSGIPDRFSGSKSGTSATLGITGLQTGDEADYYCGTWDSSLSAGVFGGGTKLTVL
B10: ADI-25503 (antibody, V domains shown)
VH: EVQLLESGAEVKKPGSSVKVSCKASGGTFSSYAISWVRQAPGQGLEWMGGIIPIFGTANYAQKFQGRVTITADESTSTAYMELSSLRSEDTAVYYCARSRYSGSYYYYYGMDVWGQGTTVTVSS
VL: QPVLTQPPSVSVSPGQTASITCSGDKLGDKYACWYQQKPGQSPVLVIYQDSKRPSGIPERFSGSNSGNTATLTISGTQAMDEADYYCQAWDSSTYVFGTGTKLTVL
notes: full-length IgG
B11: ADI-25514 (antibody, V domains shown)
VH: B10 VH with L5V, E6Q
VL: not shown
notes: full-length IgG
B12: ADI-19441 (antibody, V domains shown)
VH: QVQLVQSGAEVKKPGSSVKVSCKASGGTFSSYAISWVRQAPGQGLEWMGRIIPILGIANYAQKFQGRVTITADKSTSTAYMELSSLRSEDTAVYYCARGPLTGYSSSWFDPWGQGTLVTVSS
VL: EIVMTQSPSSLSASVGDRVTITCRASQSISSYLNWYQQKPGKAPKLLIYAASSLQSGVPSRFSGSGSGTDFTLTISSLQPEDFATYYCQQSYSTLPYTFGQGTKVEIK
notes: full-length IgG
B13: ADI-19435 (antibody, V domains shown)
VH: QVQLQESGPGLVKPSQTLSLTCTVSGGSISSGSYYWSWIRQPAGKGLEWIGRIYTSGSTNYNPSLKSRVTISVDTSKNQFSLKLSSVTAADTAVYYCAREGRGGAFDIWGQGTLVTVSS
VL: SYELTQPPSVSVSPGQTARITCSADALPKQYAYWYQQKPGQAPVLVIYKDSERPSGIPERFSGSSSGTTVTLTISGVQAEDEADYYCQSADSSGTYVVFGGGTQLTVL
notes: full-length IgG
B14: ADI-24824 (antibody, V domains shown)
VH: QVQLQESGPGLVKPSETLSLTCTVSGGSISSYYWSWIRQPPGKGLEWIGYIYYSGSTNYNPSLKSRVTISVDTSKNQFSLKLSSVTAADTAVYYCAISLYGDYRTDAFDIWGQGTTVTVSS
VL: EIVLTQSPSSFSASTGDRVTITCRASQGISSYLAWYQQKPGKAPKLLIYAASTLQSGVPSRFSGSGSGTDFTLTISCLQSEDFATYYCQQYYSYPLFGGGTKVEIK
B15: ADI-24830 (antibody, V domains shown)
VH: QVQLVQSGAEVKKPGSSVKVSCKASGGTFSSYAISWVRQAPGQGLEWMGGIIPIFGTANYAQKFQGRVTITADESTSTAYMELSSLRSEDTAVYYCARGGSMVRGLGFDPWGQGTLVTVSS
VL: not shown
notes: full-length IgG
B16: ADI-25588 (antibody, V domains shown)
VH: EVQLVESGGGLVKPGGSLRLSCAASGFTFSSYSMNWVRQAPGKGLEWVSSISSSSSYIYYADSVKGRFTISRDNAKNSLYLQMNSLRAEDTAVYYCARYSSSLGAFDIWGQGTTVTVSS
VL: QSVLTQPPSVSGAPGQRVTISCTGSSSNIGAGYDVHWYQQLPGTAPKLLIYGNSNRPSGVPDRFSGSKSGTSASLAITGLQAEDEADYYCQSYDSSLSDVFGTGTKVTVL
notes: full-length IgG
B17: ADI-22767 (antibody, V domains shown)
VH: B16 VH with E1Q, Y99E, S100A, S101N, S102W, L103G, G104V, T114M
VL: B16 VL with L4V, D99Y
notes: full-length IgG
B18: ADI-19495 (antibody, V domains shown)
VH: QVQLQESGPGLVKPSETLSLTCTVSGGSISSYYWSWIRQPPGKGLEWIGYIYTSGSTNYNPSLKSRVTISVDTSKNQFSLKLSSVTAADTAVYYCARVGSYYDLQHWGQGTLVTVSS
VL: DIQLTQSPSSVSASVGDRVTITCRASQGISSWLAWYQQKPGKAPKLLIYAASSLQSGVPSRFSGSGSGTDFTLTISSLQPEDFATYYCQQANSFPLTFGGGTKVEIK
B19: ADI-24843 (antibody, V domains shown)
VH: EVQLVESGPGLVKPSQTLSLTCTVSGGSISSGDYYWSWIRQPPGKGLEWIGYIYYSGSTYYNPSLKSRVTISVDTSKNQFSLKLSSVTAADTAVYYCARESIVGAVDYWGQGTLVTVSS
VL: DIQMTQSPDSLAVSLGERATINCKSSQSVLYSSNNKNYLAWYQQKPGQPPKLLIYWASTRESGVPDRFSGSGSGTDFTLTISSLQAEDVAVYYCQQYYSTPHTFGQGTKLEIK
notes: full-length IgG; also called Ab 405
B20: ADI-19444 (antibody, V domains shown)
VH: QVQLVQSGAEVKKPGASVKVSCKASGYTFTSYGISWVRQAPGQGLEWMGWISAYNGNTNYAQKLQGRVTMTTDTSTSTAYMELRSLRSDDTAVYYCARDEALVGATFDYWGQGTLVTVSS
VL: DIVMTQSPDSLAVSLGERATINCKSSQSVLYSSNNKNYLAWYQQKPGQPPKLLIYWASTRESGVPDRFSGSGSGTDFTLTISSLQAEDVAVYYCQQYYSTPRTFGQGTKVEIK
notes: full-length IgG
B21: ADI-19429 (antibody, V domains shown)
VH: EVQLQESGPGLVKPSETLSLTCTVSGGSISSSSYYWGWIRQPPGKGLEWIGSIYYSGSTYYNPSLKSRVTISVDTSKNQFSLKLSSVTAADTAVYYCARTPLYSYGRVVGFYYYGMDVWGQGTTVTVSS
VL: QSVLTQPPSVSGAPGQRVTISCTGSSSNIGAGYDVHWYQQLPGTAPKLLIYGNSNRPSGVPDRFSGSKSGTSASLAITGLQAEDEADYYCQSYDSSLSGWVFGGGTKLTVL
B22: ADI-24813 (antibody, V domains shown)
VH: EVQLLESGGGLVQPGRSLRLSCAASGFTFDDYAMHWVRQAPGKGLEWVSGISWNSGSIGYADSVKGRFTISRDNAKNSLYLQMNSLRAEDTALYYCAKDGDSSSWRDSNFDYWGQGTLVTVSS
VL: B21 VL with W100V
notes: full-length IgG
B23: ADI-24822 (antibody, V domains shown)
VH: QVQLVESGGGLVKPGGSLRLSCAASGFTFSSYSMNWVRQAPGKGLEWVSSISSSSSYIYYADSVKGRFTISRDNAKNSLYLQMNSLRAEDTAVYYCARDSGLGSRGDAFDIWGQGTMVTVSS
VL: B21 VL with W100Y, G104T, L108V
notes: full-length IgG
B24: ADI-19473 (antibody, V domains shown)
VH: EVQLVESGAEVKKPGESLKISCKGSGYSFTSYWIGWVRQMPGKGLEWMGIIYPGDSDTRYSPSFQGQVTISADKSISTAYLQWSSLKASDTAMYYCARLIAAAGIDYWGQGTLVTVSS
VL: NFMLTQPHSVSESPGKTVTISCTRSSGSIASNYVQWYQQRPGSSPTTVIYEDNQRPSGVPDRFSGSIDSSSNSASLTISGLKTEDEADYYCQSYDSSNIWVFGGGTKVTVL
notes: full-length IgG
B25: ADI-19492 (antibody, V domains shown)
VH: QVQLVQSGAEVKKPGESLKISCKGSGYRFTSYWIGWVRQMPGKGLEWMGIIYPGDSDTRYSPSFQGQVTISADKSISTAYLQWSSLKASDTAMYYCARSGSHYAFDLWGQGTMVTVSS
VL: B24 VL with S28N, I49L, I99P, V108L
notes: full-length IgG

target: T1, RSV postfusion F (postF), subtype A (respiratory syncytial virus subtype A, UniProt P03420 26-513); assay: BLI
T1 construct: also called Postfusion subtype A; F deltaFP

Q: Does B1 bind?
A: no binding

Q: Does B2 bind?
A: no binding

Q: Does B3 bind?
A: no binding

Q: Does B4 bind?
A: no binding

Q: Does B5 bind?
A: no binding

Q: Does B6 bind?
A: no binding

Q: Does B7 bind?
A: no binding

Q: Does B8 bind?
A: no binding

Q: Does B9 bind?
A: no binding

Q: Does B10 bind?
A: no binding

Q: Does B11 bind?
A: no binding

Q: Does B12 bind?
A: no binding

Q: Does B13 bind?
A: no binding

Q: Does B14 bind?
A: no binding

Q: Does B15 bind?
A: no binding

Q: Does B16 bind?
A: no binding

Q: Does B17 bind?
A: no binding

Q: Does B18 bind?
A: no binding

Q: Does B19 bind?
A: no binding

Q: Does B20 bind?
A: no binding

Q: Does B21 bind?
A: no binding

Q: Does B22 bind?
A: no binding

Q: Does B23 bind?
A: no binding

Q: Does B24 bind?
A: no binding

Q: Does B25 bind?
A: no binding

— patent US20260258115A1 (MAPP BIOPHARMACEUTICAL, published 2026)
